Source: patent publication US20240218065A1 (SHENGHE CHINA BIOPHARMACEUTICAL, published 2024)

T1: huCD24-humanFC (Acro, cat: CD4-H5254) (human, UniProt P25063 27-59)
T1 construct: also called CD24 protein; not shown: human Fc
T1 chain (looked up): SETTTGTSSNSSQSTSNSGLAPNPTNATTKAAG

T2: Human-NKP30-His (Kactus, cat: NKP-HM430) (human, UniProt O14931 19-138, limits assumed)
T2 construct: also called NKP30 protein; NKP30-his protein; not shown: His tag
T2 sequence (looked up): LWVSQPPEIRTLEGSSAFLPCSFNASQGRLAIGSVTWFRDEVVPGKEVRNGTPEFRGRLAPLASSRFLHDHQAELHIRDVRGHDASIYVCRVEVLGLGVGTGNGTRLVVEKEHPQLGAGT


How the values were obtained:
[1] = target: T1, huCD24-humanFC (Acro, cat: CD4-H5254); experiment: Bridging ELISA: huCD24-humanFC coated at 0.3 µg/mL, antibody titrated 3-fold from 20 µg/mL, then NKP30-his at 0.3 µg/mL, HRP anti-His antibody, OD450-OD570
Method: The huCD24-humanFC (Acro, cat: CD4-H5254) was diluted to 0.3 μg/mL with PBS buffer at pH 7.4, added into the 96-well ELISA plate at 100 μL per well, coated overnight at 4° C., and blocked with 1% BSA blocking solution for 1 hour. The plate was washed 3 times with PBST, and the purified antibody was diluted to 20 μg/mL with 0.5% BSA sample diluent as the starting concentration, and then diluted by 3-fold gradient (11 gradients in total). An irrelevant antibody was set as the negative control and incubated at 37° C. for 1 h at 50 μL per well. The plate was washed 3 times with PBST, and the NKP30-his protein was diluted to 0.3 μg/mL. 100 μL was added into each well, and incubated at room temperature for 1 h. The plate was washed 3 times with PBST, and then HRP-labelled his antibody was diluted with the sample diluent at 1:5000. 100 μL was added into each well, and incubated at room temperature for 1 h. The plate was washed 4 times with PBST, 100 μL of TMB substrate was added into each well, and incubated at room temperature without light for 10 min. 100 μL of 1 M HCl solution was added into each well to terminate the color development reaction. The absorbance value of each well in the 96-well plate was determined by selecting the wavelength of 450 nm and the reference wavelength of 570 nm on a multifunctional enzyme marker, and the absorbance value (OD)=OD₄₅₀ₙₘ−OD₅₇₀ₙₘ. The logarithm of antibody concentration was taken as the abscissa, and the measured absorbance value of each well was taken as the ordinate, and the Sigmoidaldose-response (Variable Slope) method (GraphPad Prism software, GraphPad Software, San Diego, California) was selected for nonlinear regression to obtain the binding curve of the target antibody to CD24 and NKP30 proteins at both ends.

[2] = target: T2, Human-NKP30-His (Kactus, cat: NKP-HM430); experiment: ELISA: Human-NKP30-His coated at 0.2 µg/mL, antibody titrated 3-fold from 10 µg/mL (7 points), HRP goat anti-human IgG-Fc, OD450-OD570
Method: Human-NKP30-His (Kactus, cat: NKP-HM430) was diluted to 0.2 μg/mL with PBS buffer at pH 7.4, added into the 96-well ELISA plate at 100 μL per well, coated overnight at 4° C., and blocked with 1% BSA blocking solution for 1 hour. The plate was washed 3 times with PBST, and the constructed expressing antibody was diluted to 10 μg/mL with 0.5% BSA sample diluent as the starting concentration, and then diluted by 3-fold gradient (7 gradients in total). A negative control (blank well and IgG1 isotype control) and a positive control were set, and the positive control was the NKP30 humanized antibody (sequence shown in SEQ ID No. 28), and incubated at 37° C. for 1 h at 100 μL per well. The plate was washed 3 times with PBST, and then HRP-labelled goat anti-human IgG-Fc was diluted with the sample diluent at 1:20000. 100 μL was added into each well, and incubated at room temperature for 1 hour. The plate was washed 4 times with PBST, and 100 μL of TMB substrate was added into each well, and incubated at room temperature without light for 10 minutes. 100 μL of 1 M HCl solution was added into each well to terminate the color development reaction. The absorbance value of each well in the 96-well plate was determined by selecting the wavelength of 450 nm and the reference wavelength of 570 nm on a multifunctional enzyme marker, and the absorbance value (OD)=OD₄₅₀ₙₘ−OD₅₇₀ₙₘ. The logarithm of the concentration of the constructed antibody was taken as the abscissa, and the measured absorbance value of each well was taken as the ordinate, and the Sigmoidaldose-response (Variable Slope) method (GraphPad Prism software, GraphPad Software, San Diego, California) was selected for nonlinear regression to obtain the binding curve of the target antibody to NKP30.

| EC50 (read off the curve) [1] | binding result [2] | Binder |
| --- | --- | --- |
| ~0.1 µg/mL | binds | DN15-B (bispecific antibody, human IgG1, kappa, Trifunctional antibody against CD24 and NKP30 with IL-15 and IL-15Rα sushi between CH1 and CH2; also called constructed antibody DN15-B; multifunctional antibody) light: DIQMTQSPSTLSASVGDRVTITCSASSSVSSMHWYQQKPGKAPKLLIYSTSNLASGVPSRFSGSGSGTEYTLTISSLQPDDFATYYCHHWTSYMYTFGGGTKVEIKRTVAAPSVFIFPPSDEQLKSGTASVVCLLNNFYPREAKVQWKVDNALQSGNSQESVTEQDSKDSTYSLSSTLTLSKADYEKHKVYACEVTHQGLSSPVTKSFNRGEC heavy 1: not shown heavy 2: EVQLVESGGGLVQPGGSLRLSCAASGITFSRSVMGWFRQAPGKLRELVAGITSDDNTDYADSVKGRFTISRDNSKNTLYLQMNSLRAEDTAVYYCNILPDSRLGWGQGTLVTVSSGGGGSGGGGSGGGGSQVQLVQSGSELKKPGASVKVSCKASGYIFTDYAIHWVRQAPGQGLEWMGFINTATGEPTYADDFKGRFVFSLDTSVSTAYLQISSLKAEDTAVYFCTSGVHWGQGTLVTVSSASTKGPSVFPLAPSSKSTSGGTAALGCLVKDYFPEPVTVSWNSGALTSGVHTFPAVLQSSGLYSLSSVVTVPSSSLGTQTYICNVNHKPSNTKVDKKVEPKSCDKTHTCPPCPGGGGSGGGGSPALLLLLLLRPPATRGITCPPPMSVEHADIWVKSYSLYSRERYICNSGFKRKAGTSSLTECVLNKATNVAHWTTPSLKCIRDPALVHQRPAPPSTVTTAGVTPQPESLSPSGKEGGGGSGGGGSAPELLGGPSVFLFPPKPKDTLMISRTPEVTCVVVDVSHEDPEVKFNWYVDGVEVHNAKTKPREEQYNSTYRVVSVLTVLHQDWLNGKEYKCKVSNKALPAPIEKTISKAKGQPREPQVYTLPPSRDELTKNQVSLTCLVKGFYPSDIAVEWESNGQPENNYKTTPPVLDSDGSFFLASKLTVDKSRWQQGNVFSCSVMHEALHNHYTQKSLSLSPGK |
| ~0.08 µg/mL | binds | DN15-A (bispecific antibody, human IgG1, kappa, Trifunctional antibody against CD24 and NKP30 with IL-15 and IL-15Rα sushi between CH1 and CH2; also called constructed antibody DN15-A; multifunctional antibody) light: EVQLVESGGGLVQPGGSLRLSCAASGITFSRSVMGWFRQAPGKLRELVAGITSDDNTDYADSVKGRFTISRDNSKNTLYLQMNSLRAEDTAVYYCNILPDSRLGWGQGTLVTVSSGGGGSGGGGSGGGGSDIQMTQSPSTLSASVGDRVTITCSASSSVSSMHWYQQKPGKAPKLLIYSTSNLASGVPSRFSGSGSGTEYTLTISSLQPDDFATYYCHHWTSYMYTFGGGTKVEIKRTVAAPSVFIFPPSDEQLKSGTASVVCLLNNFYPREAKVQWKVDNALQSGNSQESVTEQDSKDSTYSLSSTLTLSKADYEKHKVYACEVTHQGLSSPVTKSFNRGEC heavy 1: not shown heavy 2: QVQLVQSGSELKKPGASVKVSCKASGYIFTDYAIHWVRQAPGQGLEWMGFINTATGEPTYADDFKGRFVFSLDTSVSTAYLQISSLKAEDTAVYFCTSGVHWGQGTLVTVSSASTKGPSVFPLAPSSKSTSGGTAALGCLVKDYFPEPVTVSWNSGALTSGVHTFPAVLQSSGLYSLSSVVTVPSSSLGTQTYICNVNHKPSNTKVDKKVEPKSCDKTHTCPPCPGGGGSGGGGSPALLLLLLLRPPATRGITCPPPMSVEHADIWVKSYSLYSRERYICNSGFKRKAGTSSLTECVLNKATNVAHWTTPSLKCIRDPALVHQRPAPPSTVTTAGVTPQPESLSPSGKEGGGGSGGGGSAPELLGGPSVFLFPPKPKDTLMISRTPEVTCVVVDVSHEDPEVKFNWYVDGVEVHNAKTKPREEQYNSTYRVVSVLTVLHQDWLNGKEYKCKVSNKALPAPIEKTISKAKGQPREPQVYTLPPSRDELTKNQVSLTCLVKGFYPSDIAVEWESNGQPENNYKTTPPVLDSDGSFFLASKLTVDKSRWQQGNVFSCSVMHEALHNHYTQKSLSLSPGK |
